Data published in patent US20210332109A1 (TANAKA KIKINZOKU KOGYO K K, published 2021).

Target: T1, protein VZV gE (amino acid sequence at positions 48 to 88) (varicella-zoster virus)
T1 peptide: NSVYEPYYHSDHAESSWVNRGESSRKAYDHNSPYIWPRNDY
Assay: ELISA, peptide coated on the plate, antibody at 5 ug/mL
Procedure: After 16 hours, the gE solution was removed, and the well was washed three times with 300 μL of PBST (0.05% Tween 20 in PBS). The liquid remaining in the well was removed by tapping on a paper towel.
As a blocking solution, 300 μL of 5% BSA in PBST (BSA: manufactured by Oriental Yeast Co., Ltd.) was added, followed by incubation at 37° C. for 1 hour. Thereafter, the BSA solution was removed, and the well was washed three times with 300 μL of PBST (0.05% Tween 20 in PBS). The liquid remaining in the well was removed by tapping on a paper towel. […] Thereafter, the primary antibody solution was removed, and the well was washed three times with 300 μL of PBST (0.05% Tween 20 in PBS).

B1: Antibody 18 (antibody, V domains shown)
VH: EVQLQESGPGLVKPSQSLSLTCTVTGYSITSDYAWNWIRQFPGNKLEWMGYISYSGNSSYNPSLKSRISFTRDTSKNQFFLQLNSVTTEDTATYYCARDGSRGFDYWGQGTTLTVSS
VL: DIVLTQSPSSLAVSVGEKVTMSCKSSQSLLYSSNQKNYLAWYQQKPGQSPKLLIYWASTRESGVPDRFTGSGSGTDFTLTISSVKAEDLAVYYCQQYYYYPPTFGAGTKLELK
notes: also called antibody (II); monoclonal antibody produced by Hybridoma 18
B1: binds.
